Laboratory results taken from article PMC11040006, “Molecular basis of an atypical dsDNA 5mC/6mA bifunctional dioxygenase CcTet from Coprinopsis cinerea in catalyzing dsDNA 5mC demethylation” (Nucleic Acids Research, 2024).
Residue numbers refer to the chain shown, from its start.

How the values were obtained:
[1] = molecular target: T1, CcTet-ΔN16 (CcTet-Δ16; CcTet) (Coprinopsis cinerea, UniProt A8P1J0); experiment: X-ray crystallography, […] Å; assay type: binding; settings: complex with Mn2+ and 12-bp 5mC-dsDNA; 2 mM NOG in the crystallization mix; 2-oxoglutarate site
T1 construct: gene CC1G_05589; N-terminal 16 residues deleted; His-SUMO1 tag removed by Ulp1; expressed in E. coli BL21(DE3) from pET-SUMO
T1 sequence (A8P1J0 17-430): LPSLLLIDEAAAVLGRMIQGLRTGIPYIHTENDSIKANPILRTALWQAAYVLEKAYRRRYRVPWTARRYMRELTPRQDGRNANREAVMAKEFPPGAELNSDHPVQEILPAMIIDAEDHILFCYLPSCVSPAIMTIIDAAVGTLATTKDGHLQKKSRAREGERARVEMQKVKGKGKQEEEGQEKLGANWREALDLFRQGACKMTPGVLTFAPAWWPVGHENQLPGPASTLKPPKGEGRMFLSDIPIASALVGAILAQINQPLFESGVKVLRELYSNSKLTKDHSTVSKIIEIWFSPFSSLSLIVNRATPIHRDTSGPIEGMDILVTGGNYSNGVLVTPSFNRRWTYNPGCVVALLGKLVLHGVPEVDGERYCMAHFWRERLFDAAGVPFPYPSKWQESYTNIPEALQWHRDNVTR

[2] = molecular target: T2, CcTet-ΔN16 H234A (Coprinopsis cinerea, UniProt A8P1J0 17-430, H234A); experiment: MST; MST: NT-495 labeled protein, room temperature, 5 min incubation, buffer not stated (protein gel-filtration buffer 20 mM HEPES pH 7.0, 100 mM NaCl, 1 mM DTT). Crystals: 2 mM NOG, 1 mM MnCl2, protein:DNA 1:1.2, 20 mM sodium formate, 10% PEG8000, 277 K; settings: protein: recombinant; tags: N-terminal His-Sumo1, removed by Ulp1; blunt
T2 sequence: T1 sequence (A8P1J0 17-430) with H218A

[3] = molecular target: T3, CcTet-ΔN16 R92A (Coprinopsis cinerea, UniProt A8P1J0 17-430, R92A); experiment: as above; settings: protein: recombinant; tags: N-terminal His-Sumo1, removed by Ulp1; blunt
T3 sequence: T1 sequence (A8P1J0 17-430) with R76A

[4] = molecular target: T4, CcTet-ΔN16 R96A (Coprinopsis cinerea, UniProt A8P1J0 17-430, R96A); experiment: as above; settings: protein: recombinant; tags: N-terminal His-Sumo1, removed by Ulp1; blunt
T4 sequence: T1 sequence (A8P1J0 17-430) with R80A

[5] = molecular target: T5, CcTet-ΔN16 (Coprinopsis cinerea, UniProt A8P1J0 17-430); experiment: X-ray crystallography (2.3 Å); Mn2+, N-oxalylglycine (NOG); MST: NT-495 labeled protein, room temperature, 5 min incubation, buffer not stated (protein gel-filtration buffer 20 mM HEPES pH 7.0, 100 mM NaCl, 1 mM DTT). Crystals: 2 mM NOG, 1 mM MnCl2, protein:DNA 1:1.2, 20 mM sodium formate, 10% PEG8000, 277 K; settings: protein: recombinant; tags: N-terminal His-Sumo1, removed by Ulp1; blunt; as printed, T of strand 2 (position 7) lies opposite 5mC6 (mismatch)
T5 sequence: T1 sequence (A8P1J0 17-430)

O=C(O)CNC(=O)C(=O)O [N-oxalylglycine]
X-ray crystallography, 2.3 Å [1]: NOG was stabilized through hydrophilic and hydrophobic interactions with several nearby residues

B1: 19-bp 5mC-dsDNA (dsDNA)
DNA 1: TCTGGAACGGAATTCTTCA
DNA 2: TGAAGAATTCCGTTCCAGA
modifications: 5mC at position 8 of strand 1
binding result [2]: no binding | binding result [3]: no binding | binding result [4]: no binding

B2: 12-bp 5mC-dsDNA (dsDNA)
DNA 1: CGATCCGCTACG
DNA 2: CGTAGCTGATCG
modifications: 5mC at position 6 of strand 1
binding result [5]: binds
